Experimental findings from paper PMC9433092, “Closely related type II-C Cas9 orthologs recognize diverse PAMs” are described below.

Residue numbers refer to the chain shown, from its start.

Common to all, as to experiment: HEK293T cells
What all share (conditions): tags: NLS and HA tags, kept

Data set [1] has as its target T1, Nsp2-SmuCas9 (synthetic).
T1 chain: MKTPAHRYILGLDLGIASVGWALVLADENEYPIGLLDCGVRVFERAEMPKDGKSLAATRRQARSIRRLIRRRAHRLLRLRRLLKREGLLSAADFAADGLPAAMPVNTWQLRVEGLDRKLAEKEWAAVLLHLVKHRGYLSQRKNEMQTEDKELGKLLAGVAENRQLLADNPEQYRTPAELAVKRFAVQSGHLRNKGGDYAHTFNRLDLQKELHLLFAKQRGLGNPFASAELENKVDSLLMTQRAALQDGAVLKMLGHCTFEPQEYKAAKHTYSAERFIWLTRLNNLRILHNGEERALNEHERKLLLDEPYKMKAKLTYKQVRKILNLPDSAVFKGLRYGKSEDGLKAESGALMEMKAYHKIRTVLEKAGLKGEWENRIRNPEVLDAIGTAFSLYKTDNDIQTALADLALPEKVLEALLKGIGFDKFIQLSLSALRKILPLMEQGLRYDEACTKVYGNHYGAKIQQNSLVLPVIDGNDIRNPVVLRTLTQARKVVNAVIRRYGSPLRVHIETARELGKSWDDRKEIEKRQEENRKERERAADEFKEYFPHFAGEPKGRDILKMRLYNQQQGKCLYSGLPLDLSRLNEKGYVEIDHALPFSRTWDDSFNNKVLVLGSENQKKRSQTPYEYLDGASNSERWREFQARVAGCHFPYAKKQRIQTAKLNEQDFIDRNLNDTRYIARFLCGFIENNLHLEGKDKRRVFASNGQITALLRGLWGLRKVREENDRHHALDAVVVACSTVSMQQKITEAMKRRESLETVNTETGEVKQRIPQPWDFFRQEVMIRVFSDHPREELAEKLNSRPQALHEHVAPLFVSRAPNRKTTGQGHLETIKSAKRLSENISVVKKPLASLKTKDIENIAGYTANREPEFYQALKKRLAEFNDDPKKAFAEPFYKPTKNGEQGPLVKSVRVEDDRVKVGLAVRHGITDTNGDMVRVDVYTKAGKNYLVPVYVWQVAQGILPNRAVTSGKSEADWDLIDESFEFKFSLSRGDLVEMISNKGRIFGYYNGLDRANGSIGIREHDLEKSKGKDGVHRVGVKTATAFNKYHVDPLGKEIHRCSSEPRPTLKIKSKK

Data set [2] has as its target T2, NarCas9 (Neisseria arctica, UniProt A0A0J0YQ19).
T2 sequence: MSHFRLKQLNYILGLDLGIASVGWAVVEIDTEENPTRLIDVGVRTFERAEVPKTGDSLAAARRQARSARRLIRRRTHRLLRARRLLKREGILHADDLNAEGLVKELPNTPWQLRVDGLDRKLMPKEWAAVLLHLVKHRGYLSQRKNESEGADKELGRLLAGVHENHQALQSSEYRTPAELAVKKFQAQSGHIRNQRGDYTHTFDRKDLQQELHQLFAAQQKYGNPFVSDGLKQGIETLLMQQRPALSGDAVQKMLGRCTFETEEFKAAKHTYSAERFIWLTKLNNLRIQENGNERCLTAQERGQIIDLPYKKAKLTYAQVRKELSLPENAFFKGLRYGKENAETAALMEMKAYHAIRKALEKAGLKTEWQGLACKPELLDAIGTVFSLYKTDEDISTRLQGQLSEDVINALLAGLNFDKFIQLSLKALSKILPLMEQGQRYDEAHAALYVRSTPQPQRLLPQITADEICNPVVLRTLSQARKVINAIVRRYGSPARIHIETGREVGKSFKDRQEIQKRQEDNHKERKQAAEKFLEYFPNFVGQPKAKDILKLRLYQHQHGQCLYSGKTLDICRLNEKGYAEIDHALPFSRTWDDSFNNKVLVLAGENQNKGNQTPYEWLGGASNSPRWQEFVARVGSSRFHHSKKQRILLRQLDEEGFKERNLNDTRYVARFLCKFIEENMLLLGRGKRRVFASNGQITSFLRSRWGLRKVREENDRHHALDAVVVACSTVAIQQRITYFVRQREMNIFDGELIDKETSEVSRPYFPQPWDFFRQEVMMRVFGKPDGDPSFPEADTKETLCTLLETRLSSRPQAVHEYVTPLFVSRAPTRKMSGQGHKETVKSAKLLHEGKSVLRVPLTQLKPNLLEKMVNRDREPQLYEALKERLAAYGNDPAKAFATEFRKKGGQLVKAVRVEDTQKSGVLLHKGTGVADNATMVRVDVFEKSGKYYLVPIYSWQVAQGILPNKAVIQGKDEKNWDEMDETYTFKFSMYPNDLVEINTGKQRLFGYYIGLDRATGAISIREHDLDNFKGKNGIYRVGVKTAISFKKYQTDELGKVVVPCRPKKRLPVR

For data set [3], the target named is T3, Nme2-SmuCas9 (synthetic).
T3 chain: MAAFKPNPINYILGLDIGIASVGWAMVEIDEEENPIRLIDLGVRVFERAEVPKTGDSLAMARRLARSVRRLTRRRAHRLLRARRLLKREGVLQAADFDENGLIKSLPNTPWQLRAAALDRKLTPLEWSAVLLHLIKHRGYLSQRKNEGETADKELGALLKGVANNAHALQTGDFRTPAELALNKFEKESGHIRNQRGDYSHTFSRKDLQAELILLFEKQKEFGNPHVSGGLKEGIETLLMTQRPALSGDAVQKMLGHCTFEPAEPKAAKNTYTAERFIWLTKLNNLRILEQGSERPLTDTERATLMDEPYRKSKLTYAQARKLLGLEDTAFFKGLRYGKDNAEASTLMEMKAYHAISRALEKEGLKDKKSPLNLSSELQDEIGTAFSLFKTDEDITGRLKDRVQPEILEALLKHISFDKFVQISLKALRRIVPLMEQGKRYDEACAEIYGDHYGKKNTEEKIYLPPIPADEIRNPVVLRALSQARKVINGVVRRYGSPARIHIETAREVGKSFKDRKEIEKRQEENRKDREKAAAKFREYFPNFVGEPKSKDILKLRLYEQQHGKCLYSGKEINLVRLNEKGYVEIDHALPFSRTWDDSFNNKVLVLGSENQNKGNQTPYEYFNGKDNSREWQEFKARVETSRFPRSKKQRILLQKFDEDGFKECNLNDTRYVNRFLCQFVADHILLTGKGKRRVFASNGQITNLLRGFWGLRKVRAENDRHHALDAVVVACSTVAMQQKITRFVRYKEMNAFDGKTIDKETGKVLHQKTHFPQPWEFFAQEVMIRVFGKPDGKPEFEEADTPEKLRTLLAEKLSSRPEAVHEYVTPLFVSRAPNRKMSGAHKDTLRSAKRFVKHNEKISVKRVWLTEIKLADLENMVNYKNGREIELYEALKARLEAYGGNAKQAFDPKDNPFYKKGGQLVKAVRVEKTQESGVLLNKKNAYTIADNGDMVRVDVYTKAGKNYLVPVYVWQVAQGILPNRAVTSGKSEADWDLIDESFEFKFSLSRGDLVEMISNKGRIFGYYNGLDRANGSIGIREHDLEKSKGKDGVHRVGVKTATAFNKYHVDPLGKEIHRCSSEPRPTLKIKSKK

B1: AAVS1 TS5 (mixed)
RNA: GGUCUGAGGGUGGAGGGACUGGGUUGUAGCUCCCUUUCUCAUUUCGGAAACGAAAUGAGAACCGUUGCUACAAUAAGGCCGUCUGAAAAGAUGUGCCGCAACGCUCUGCCCCUUAAAGCUUCUGCUUUAAGGGGCAUCGUUUAUUUUUUU
DNA 1: GGTCTGAGGGTGGAGGGACTGGGGGCCTGG
DNA 2: CCAGGCCCCCAGTCCCTCCACCCTCAGACC
For the molecule B1, the values for the indel frequency in data set [1], in data set [2] and in data set [3] were 17.8 % indels, 13.2 % indels and 14.5 % indels, respectively.

B2: GRIN2B TS17 (mixed)
RNA: GUGCAGUUAGGGAAUAAGCCCCAGUUGUAGCUCCCUUUCUCAUUUCGGAAACGAAAUGAGAACCGUUGCUACAAUAAGGCCGUCUGAAAAGAUGUGCCGCAACGCUCUGCCCCUUAAAGCUUCUGCUUUAAGGGGCAUCGUUUAUUUUUUU
DNA 1: TGCAGTTAGGGAATAAGCCCCAGTGTCAAG
DNA 2: CTTGACACTGGGGCTTATTCCCTAACTGCA
With B2, the figures for the indel frequency in data set [1] and in data set [2] were 23.2 % indels and 7.65 % indels, respectively.

B3: AAVS1 TS3 (mixed)
RNA: GUCUGACCUGCAUUCUCUCCCCUGUUGUAGCUCCCUUUCUCAUUUCGGAAACGAAAUGAGAACCGUUGCUACAAUAAGGCCGUCUGAAAAGAUGUGCCGCAACGCUCUGCCCCUUAAAGCUUCUGCUUUAAGGGGCAUCGUUUAUUUUUUU
DNA 1: TCTGACCTGCATTCTCTCCCCTGGGCCTGT
DNA 2: ACAGGCCCAGGGGAGAGAATGCAGGTCAGA
As for B3, the indel frequency in data set [1] turned out to be 17.9 % indels; in data set [2], 9.89 % indels.

B4: AAVS1 TS4 (mixed)
RNA: GCUGUCCCCUCCACCCCACAGUGGUUGUAGCUCCCUUUCUCAUUUCGGAAACGAAAUGAGAACCGUUGCUACAAUAAGGCCGUCUGAAAAGAUGUGCCGCAACGCUCUGCCCCUUAAAGCUUCUGCUUUAAGGGGCAUCGUUUAUUUUUUU
DNA 1: CTGTCCCCTCCACCCCACAGTGGGGCCACT
DNA 2: AGTGGCCCCACTGTGGGGTGGAGGGGACAG
With B4, the indel frequency stood at 6.53 % indels in data set [1] and 5.75 % indels in data set [2].

B5: EMX1 TS14 (mixed)
RNA: GCCAAGACGGUGACCAGACUCAAGUUGUAGCUCCCUUUCUCAUUUCGGAAACGAAAUGAGAACCGUUGCUACAAUAAGGCCGUCUGAAAAGAUGUGCCGCAACGCUCUGCCCCUUAAAGCUUCUGCUUUAAGGGGCAUCGUUUAUUUUUUU
DNA 1: CCAAGACGGTGACCAGACTCAAGTTACTGA
DNA 2: TCAGTAACTTGAGTCTGGTCACCGTCTTGG
For B5, the indel frequency in data set [1] turned out to be 16.5 % indels.

B6: AAVS1 TS1 (mixed)
RNA: GCAGCAUAGGGUGGCAAAGCCCAGUUGUAGCUCCCUUUCUCAUUUCGGAAACGAAAUGAGAACCGUUGCUACAAUAAGGCCGUCUGAAAAGAUGUGCCGCAACGCUCUGCCCCUUAAAGCUUCUGCUUUAAGGGGCAUCGUUUAUUUUUUU
DNA 1: CAGCATAGGGTGGCAAAGCCCAGGGCCAGG
DNA 2: CCTGGCCCTGGGCTTTGCCACCCTATGCTG
In the case of B6, the indel frequency in data set [1] is 16.7 % indels; in data set [2], 10.9 % indels.

B7: AAVS1 TS2 (mixed)
RNA: B6 RNA with A6G, U7C, G9A, G10A, G14A, A18U, C20G
DNA 1: CAGCGCAAAGTGACAATGGCCAGGGCCAGG
DNA 2: CCTGGCCCTGGCCATTGTCACTTTGCGCTG
For B7, the indel frequency in data set [1] stood at 12.4 % indels.

B8: EMX1 TS10 (mixed)
RNA: GACUGACUGGAUGUGCACAGCAGGUUGUAGCUCCCUUUCUCAUUUCGGAAACGAAAUGAGAACCGUUGCUACAAUAAGGCCGUCUGAAAAGAUGUGCCGCAACGCUCUGCCCCUUAAAGCUUCUGCUUUAAGGGGCAUCGUUUAUUUUUUU
DNA 1: ACTGACTGGATGTGCACAGCAGTGACCG
DNA 2: CGGTCACTGCTGTGCACATCCAGTCAGT
With B8, the indel frequency in data set [1] came out at 5.48 % indels.

B9: EMX1 TS13 (mixed)
RNA: GGUGGUAGAGGGAGCAGUAUGAGUUGUAGCUCCCUUUCUCAUUUCGGAAACGAAAUGAGAACCGUUGCUACAAUAAGGCCGUCUGAAAAGAUGUGCCGCAACGCUCUGCCCCUUAAAGCUUCUGCUUUAAGGGGCAUCGUUUAUUUUUUU
DNA 1: GGTGGTAGAGGGAGCAGTATGAGAGTCTGG
DNA 2: CCAGACTCTCATACTGCTCCCTCTACCACC
As for B9, the indel frequency in data set [1] was 35.6 % indels; in data set [2] it was 18.4 % indels; in data set [3], 12.2 % indels.

B10: EMX1 TS9 (mixed)
RNA: GUAAGACGAAUUGUAGAAAGGAGGUUGUAGCUCCCUUUCUCAUUUCGGAAACGAAAUGAGAACCGUUGCUACAAUAAGGCCGUCUGAAAAGAUGUGCCGCAACGCUCUGCCCCUUAAAGCUUCUGCUUUAAGGGGCAUCGUUUAUUUUUUU
DNA 1: TAAGACGAATTGTAGAAAGGAGAGATCAC
DNA 2: GTGATCTCTCCTTTCTACAATTCGTCTTA
The molecule B10 came in with an indel frequency in data set [1] of 16 % indels.

B11: AAVS1 TS6 (mixed)
RNA: GUGAACUGGAGUGUGACAGCCUGGUUGUAGCUCCCUUUCUCAUUUCGGAAACGAAAUGAGAACCGUUGCUACAAUAAGGCCGUCUGAAAAGAUGUGCCGCAACGCUCUGCCCCUUAAAGCUUCUGCUUUAAGGGGCAUCGUUUAUUUUUUU
DNA 1: TGAACTGGAGTGTGACAGCCTGGGGCCCAG
DNA 2: CTGGGCCCCAGGCTGTCACACTCCAGTTCA
With B11, in data set [1], the indel frequency amounted to 6.16 % indels.
